In paper PMC4107485 one finds binding and binding signal (fold binding vs unphosphorylated BaeR) data, which are given here for 3 substances.

Common to all, as to test: EMSA
(In general: Mobility shift assays separate free from complexed probe on a gel.)

Series [1] has as its system T1, BaeR (Erwinia amylovora Ea1189), ORF:3df56c72.
T1 sequence: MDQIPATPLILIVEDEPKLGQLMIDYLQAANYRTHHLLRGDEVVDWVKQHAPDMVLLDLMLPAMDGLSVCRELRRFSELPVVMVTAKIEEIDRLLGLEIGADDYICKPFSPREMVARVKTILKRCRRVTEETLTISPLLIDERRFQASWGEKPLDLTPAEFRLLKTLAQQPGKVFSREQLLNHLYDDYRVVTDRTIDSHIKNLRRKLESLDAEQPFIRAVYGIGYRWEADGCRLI

Series [2] has as its target T2, CpxR (Erwinia amylovora Ea1189) (UniProt A0ABX7MGR0).
T2 sequence: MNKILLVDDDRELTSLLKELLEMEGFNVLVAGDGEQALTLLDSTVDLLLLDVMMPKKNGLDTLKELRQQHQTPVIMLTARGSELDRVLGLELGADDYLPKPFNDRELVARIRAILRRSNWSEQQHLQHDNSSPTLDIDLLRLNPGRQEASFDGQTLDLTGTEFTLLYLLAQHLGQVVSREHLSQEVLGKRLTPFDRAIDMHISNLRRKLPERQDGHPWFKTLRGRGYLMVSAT

The test system of series [3] is BaeR, acetyl phosphate treated (Erwinia amylovora Ea1189).

Regarding “TCTACGGTCACGGTTAAGAAACCGCGTCGTCTTTTGCGCCGTCAGCTGCAGATCACCACGCGTATGCGTGGTTTTTTTGGCGCTATTTCATGGCGATAACATATATTAAATCTCGCATTTCTTACGGAATTCTTACGCTGCCAGCATGGAACGCCAGCAGATAAGCTAAGATAATATGCTTAACTACCCACCACCTTTGGACGGGTAAGGGGCTAAAGCCATGCCCTTTACGCCGGGTTTTTGCGCGCCGGGGATTATCCTGTCGGGTGTTGTTTA (double strand) [mdtUVW upstream region]”, the binding entry in series [1] and in series [2] was “no binding” throughout.
As to “TGATTCTCCTGATTGATAAGTGGATAACGCAGCTGATAAGACTGGCAAACAGCGTTGCATGCGCTGCGTTGATTTGTAGCATACCATTTGCCAATACTAAATTTTCTCACCGTAGCAGCTCTTATTTAAGCCGTTATCCTTATTTCCTTCATTTTTCAGCGCCTGAAATTCGCTATCCTTGCCAGCCTGGGGGCAAGCCCTAATCCCGCCCCGCGCCCTGCTTTAATTTCACGGAGAGTAGCACCCAGGATGAAAACACCCCGACGTTTCCCCCTTATCGCCTTGACGGT (double strand) [mdtABC upstream region]”, the binding result is “binds” in series [1] and “no binding” in series [2].
Substance mdtABC upstream region displayed a binding signal (fold binding vs unphosphorylated BaeR) in series [3] of 2.
